B2: PACT C213F (recessive DYT16 mutant) (other, UniProt O75569 1-313, looked up)
chain: MSQSRHRAEAPPLEREDSGTFSLGKMITAKPGKTPIQVLHEYGMKTKNIPVYECERSDVQIHVPTFTFRVTVGDITCTGEGTSKKLAKHRAAEAAINILKANASICFAVPDPLMPDPSKQPKNQLNPIGSLQELAIHHGWRLPEYTLSQEGGPAHKREYTTICRLESFMETGKGASKKQAKRNAAEKFLAKFSNISPENHISLTNVVGHSLGFTWHSLRNSPGEKINLLKRSLLSIPNTDYIQLLSEIAKEQGFNITYLDIDELSANGQYQCLAELSTSPITVCHGSGISCGNAQSDAAHNALQYLKIIAERK
notes: N-terminal Myc or FLAG tag in co-IP; GAL4-DBD or VP16-AD fusion in mammalian two-hybrid; histidine tag in PKR activity assay
B4: PACT C77S (recessive DYT16 mutant) (other, UniProt O75569 1-313, looked up)
chain: MSQSRHRAEAPPLEREDSGTFSLGKMITAKPGKTPIQVLHEYGMKTKNIPVYECERSDVQIHVPTFTFRVTVGDITSTGEGTSKKLAKHRAAEAAINILKANASICFAVPDPLMPDPSKQPKNQLNPIGSLQELAIHHGWRLPEYTLSQEGGPAHKREYTTICRLESFMETGKGASKKQAKRNAAEKFLAKFSNISPENHISLTNVVGHSLGCTWHSLRNSPGEKINLLKRSLLSIPNTDYIQLLSEIAKEQGFNITYLDIDELSANGQYQCLAELSTSPITVCHGSGISCGNAQSDAAHNALQYLKIIAERK
notes: as for B2

Tests used:
[1] = target: T1, flag-tagged dominant negative PKR mutant, K296R (UniProt P19525 1-551); assay: co-IP in HeLa cells: Myc-PACT on Myc-agarose, flag-PKR K296R detected by anti-flag blot
T1 construct: Used in the co-IP assays in HeLa cells; also called flag-PKR; flag-tagged K296R
Description: (§1) In all cases HeLa M cells were seeded at 20% confluency in 6-well dishes 24 hours prior to co-transfecting 250 ng of each flag- and/or Myc-tagged constructs using Effectene® reagent (Qiagen). Cells were harvested 24 hours post transfection and harvested in IP buffer. Whole cell extract was then immunoprecipitated overnight at 4° C. on a rotating wheel with either flag-agarose (Sigma) or Myc-agarose beads (Thermo Scientific). Immunoprecipitates were then washed 3-5 times in IP buffer followed by resuspension and boiling for 5 minutes in 1×Laemmle buffer. Samples were then resolved on 10% SDS-PAGE denaturing gels and transferred to PVDF membranes. […] The cell lysates were immunoprecipitated in 15 μL of Myc-agarose beads and resolved on 10% SDS-PAGE denaturing gels and transferred to PVDF membranes.
The immunoprecipitates were analyzed by western blot analysis with anti-flag (FIG. 4A) or anti-Myc (FIG. 4B) antibodies (co-IP panel) and with anti-Myc (FIG. 4A) or anti-flag (B) for IP panels.

[2] = target: B4; assay: mammalian two-hybrid, luciferase reporter; PACT proteins as GAL4-DBD bait and VP16-AD prey
[3] = target: B2; assay: co-IP in HeLa cells: flag-PACT on flag-agarose, Myc-PACT detected by anti-Myc blot
Description: as §1

[4] = target: T2, PACT C213F (recessive DYT16 mutant), O75569
T2 chain: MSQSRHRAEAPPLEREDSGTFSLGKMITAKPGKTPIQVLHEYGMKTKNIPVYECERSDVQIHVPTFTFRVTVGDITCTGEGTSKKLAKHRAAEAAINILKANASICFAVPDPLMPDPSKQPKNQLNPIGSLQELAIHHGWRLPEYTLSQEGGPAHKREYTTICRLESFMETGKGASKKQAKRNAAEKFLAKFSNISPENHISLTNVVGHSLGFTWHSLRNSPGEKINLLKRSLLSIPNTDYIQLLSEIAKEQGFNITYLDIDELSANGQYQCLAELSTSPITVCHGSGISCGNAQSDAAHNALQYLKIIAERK

[5] = target: T3, PACT C213R (recessive DYT16 mutant), O75569
T3 chain: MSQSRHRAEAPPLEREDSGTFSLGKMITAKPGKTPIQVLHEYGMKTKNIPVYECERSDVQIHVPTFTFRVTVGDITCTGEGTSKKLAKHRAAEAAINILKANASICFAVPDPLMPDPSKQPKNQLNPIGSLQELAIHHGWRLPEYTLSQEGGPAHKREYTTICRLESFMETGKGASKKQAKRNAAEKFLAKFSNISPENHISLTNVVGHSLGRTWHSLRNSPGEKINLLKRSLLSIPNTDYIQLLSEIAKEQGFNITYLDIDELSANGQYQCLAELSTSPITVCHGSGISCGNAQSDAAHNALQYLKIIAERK

[6] = target: T4, PACT C77S (recessive DYT16 mutant), O75569
T4 chain: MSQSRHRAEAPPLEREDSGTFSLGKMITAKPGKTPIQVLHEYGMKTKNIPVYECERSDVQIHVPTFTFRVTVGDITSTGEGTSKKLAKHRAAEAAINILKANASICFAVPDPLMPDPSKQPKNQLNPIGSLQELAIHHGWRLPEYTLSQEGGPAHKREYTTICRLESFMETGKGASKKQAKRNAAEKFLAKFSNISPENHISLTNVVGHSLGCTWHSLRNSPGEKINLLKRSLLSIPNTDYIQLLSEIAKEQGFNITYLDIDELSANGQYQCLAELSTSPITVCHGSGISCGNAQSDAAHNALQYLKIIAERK

[7] = target: T5, PACT N102S (dominant DYT16 mutant), O75569
T5 chain: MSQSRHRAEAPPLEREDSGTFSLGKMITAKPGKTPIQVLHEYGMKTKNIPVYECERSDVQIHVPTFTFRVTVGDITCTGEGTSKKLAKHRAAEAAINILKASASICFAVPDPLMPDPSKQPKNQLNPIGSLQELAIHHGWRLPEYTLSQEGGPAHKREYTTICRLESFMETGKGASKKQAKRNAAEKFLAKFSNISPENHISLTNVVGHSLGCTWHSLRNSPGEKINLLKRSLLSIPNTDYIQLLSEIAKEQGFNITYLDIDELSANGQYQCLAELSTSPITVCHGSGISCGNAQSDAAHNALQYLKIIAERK

[8] = target: T6, PACT P222L (recessive DYT16 mutant), O75569
T6 chain: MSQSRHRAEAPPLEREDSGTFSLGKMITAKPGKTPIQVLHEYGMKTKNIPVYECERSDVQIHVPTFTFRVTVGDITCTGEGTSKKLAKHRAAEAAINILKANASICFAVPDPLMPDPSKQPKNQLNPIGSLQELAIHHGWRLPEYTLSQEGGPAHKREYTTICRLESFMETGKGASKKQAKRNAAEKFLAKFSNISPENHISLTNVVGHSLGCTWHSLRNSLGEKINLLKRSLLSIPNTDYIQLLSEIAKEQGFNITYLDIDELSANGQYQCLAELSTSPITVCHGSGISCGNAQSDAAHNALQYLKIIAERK

[9] = target: T7, PACT T34S (dominant DYT16 mutant), O75569
T7 chain: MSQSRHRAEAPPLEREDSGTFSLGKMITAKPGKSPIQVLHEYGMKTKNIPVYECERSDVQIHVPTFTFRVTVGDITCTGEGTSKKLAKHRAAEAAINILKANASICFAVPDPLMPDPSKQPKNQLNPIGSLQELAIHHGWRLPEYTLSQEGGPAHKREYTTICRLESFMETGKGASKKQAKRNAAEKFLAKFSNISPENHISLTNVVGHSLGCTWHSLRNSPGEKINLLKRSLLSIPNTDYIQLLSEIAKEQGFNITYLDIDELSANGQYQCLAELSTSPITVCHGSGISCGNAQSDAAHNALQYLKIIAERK

[10] = target: T8, wild type (wt) PACT, O75569
T8 chain: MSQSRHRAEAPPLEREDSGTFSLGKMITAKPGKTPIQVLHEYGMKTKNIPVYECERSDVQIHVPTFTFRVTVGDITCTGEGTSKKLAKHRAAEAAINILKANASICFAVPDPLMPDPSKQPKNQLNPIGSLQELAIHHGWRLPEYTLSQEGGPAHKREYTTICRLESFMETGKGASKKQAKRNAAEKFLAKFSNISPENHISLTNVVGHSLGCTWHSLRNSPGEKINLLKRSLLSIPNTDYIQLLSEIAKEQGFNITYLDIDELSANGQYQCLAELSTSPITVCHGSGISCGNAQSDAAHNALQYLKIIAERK

B1: wild type (wt) PACT (other, UniProt O75569 1-313, looked up)
chain: MSQSRHRAEAPPLEREDSGTFSLGKMITAKPGKTPIQVLHEYGMKTKNIPVYECERSDVQIHVPTFTFRVTVGDITCTGEGTSKKLAKHRAAEAAINILKANASICFAVPDPLMPDPSKQPKNQLNPIGSLQELAIHHGWRLPEYTLSQEGGPAHKREYTTICRLESFMETGKGASKKQAKRNAAEKFLAKFSNISPENHISLTNVVGHSLGCTWHSLRNSPGEKINLLKRSLLSIPNTDYIQLLSEIAKEQGFNITYLDIDELSANGQYQCLAELSTSPITVCHGSGISCGNAQSDAAHNALQYLKIIAERK
notes: also called Myc-PACT; flag-PACT
- binding result [1]: binds

Binder: B2
- binding result [1]: binds
- fold higher interaction than wt PACT-wt PACT [2]: ~9 fold

B3: PACT C213R (recessive DYT16 mutant) (other, UniProt O75569 1-313, looked up)
chain: MSQSRHRAEAPPLEREDSGTFSLGKMITAKPGKTPIQVLHEYGMKTKNIPVYECERSDVQIHVPTFTFRVTVGDITCTGEGTSKKLAKHRAAEAAINILKANASICFAVPDPLMPDPSKQPKNQLNPIGSLQELAIHHGWRLPEYTLSQEGGPAHKREYTTICRLESFMETGKGASKKQAKRNAAEKFLAKFSNISPENHISLTNVVGHSLGRTWHSLRNSPGEKINLLKRSLLSIPNTDYIQLLSEIAKEQGFNITYLDIDELSANGQYQCLAELSTSPITVCHGSGISCGNAQSDAAHNALQYLKIIAERK
notes: as for B2
- binding result [1]: binds

Binder: B4
- binding result [3]: binds
- binding result [1]: binds

B5: PKR (protein)
chain: MAGDLSAGFFMEELNTYRQKQGVVLKYQELPNSGPPHDRRFTFQVIIDGREFPEGEGRSKKEAKNAAAKLAVEILNKEKKAVSPLLLTTTNSSEGLSMGNYIGLINRIAQKKRLTVNYEQCASGVHGPEGFHYKCKMGQKEYSIGTGSTKQEAKQLAAKLAYLQILSEETSVKSDYLSSGSFATTCESQSNSLVTSTLASESSSEGDFSADTSEINSNSDSLNSSSLLMNGLRNNQRKAKRSLAPRFDLPDMKETKYTVDKRFGMDFKEIELIGSGGFGQVFKAKHRIDGKTYVIKRVKYNNEKAEREVKALAKLDHVNIVHYNGCWDGFDYDPETSDDSLESSDYDPENSKNSSRSKTKCLFIQMEFCDKGTLEQWIEKRRGEKLDKVLALELFEQITKGVDYIHSKKLIHRDLKPSNIFLVDTKQVKIGDFGLVTSLKNDGKRTRSKGTLRYMSPEQISSQDYGKEVDLYALGLILAELLHVCDTAFETSKFFTDLRDGIISDIFDKKEKTLLQKLLSKKPEDRPNTSEILRTLTVWKKSPEKNERHTC
- PKR autophosphorylation, in vitro PKR kinase activity assay [4]: In all cases, recessive mutations demonstrated a slightly increased capacity to activate PKR ... as compared to wt PACT
- PKR autophosphorylation, in vitro PKR kinase activity assay [5]: In all cases, recessive mutations demonstrated a slightly increased capacity to activate PKR ... as compared to wt PACT
- PKR autophosphorylation, in vitro PKR kinase activity assay [6]: In all cases, recessive mutations demonstrated a slightly increased capacity to activate PKR ... as compared to wt PACT
- PKR autophosphorylation, in vitro PKR kinase activity assay [7]: The dominant mutants (lower panel) also showed enhanced ability to activate PKR at 400 µg
- PKR autophosphorylation, in vitro PKR kinase activity assay [8]: In all cases, recessive mutations demonstrated a slightly increased capacity to activate PKR ... as compared to wt PACT
- PKR autophosphorylation, in vitro PKR kinase activity assay [9]: The dominant mutants (lower panel) also showed enhanced ability to activate PKR at 400 µg
- PKR autophosphorylation, in vitro PKR kinase activity assay [10]: When the purified recombinant PACT proteins were added, a dose dependent increase (left: 400 µg, right: 4.0 ng) in activated autophosphorylated PKR was observed

Reference: patent US20230233512A1 (UNIVERSITY OF SOUTH CAROLINA, published 2023)
